# Test results taken from patent US20070105771A1 (Y S THERAPEUTICS, published 2007).
# T1: human CD26-derived 13 mer peptide 100 (human)
# T1 peptide: LQYPKTVRVPYPK
# T2: human CD26-derived 13 mer peptide 45 (human)
# T2 peptide: DLNKRQLITEERI
# T3: human CD26-derived 13 mer peptide 25 (human)
# T3 peptide: DEFGHSINDYSIS
# T4: human CD26-derived 13 mer peptide 21 (human)
# T4 peptide: VFLENSTFDEFGH
# T5: human CD26-derived 13 mer peptide 88 (human)
# T5 peptide: FLAYAQFNDTEVP
# T6: human CD26-derived 13 mer peptide 47 (human)
# T6 peptide: RQLITEERIPNNT
# T7: human CD26-derived 13 mer peptide 119 (human)
# T7 peptide: SIQITAPASMLIG
# T8: human CD26-derived 13 mer peptide 71 (human)
# T8 peptide: TGKEDIIYNGITD
# T9: human CD26-derived 13 mer peptide 28 (human)
# T9 peptide: INDYSISPDGQFI
# T10: human CD26-derived 13 mer peptide 103 (human)
# T10 peptide: VRVPYPKAGAVNP
# T11: human CD26-derived 13 mer peptide 22 (human)
# T11 peptide: LENSTFDEFGHSI
# T12: human CD26-derived 13 mer peptide 96 (human)
# T12 peptide: YSFYSDESLQYPK
# T13: human CD26-derived 13 mer peptide 23 (human)
# T13 peptide: NSTFDEFGHSIND
# T14: human CD26-derived 13 mer peptide 112 (human)
# T14 peptide: VVNTDSLSSVTNA
# T15: human CD26-derived 13 mer peptide 104 (human)
# T15 peptide: VPYPKAGAVNPTV
# T16: human CD26-derived 13 mer peptide 110 (human)
# T16 peptide: VKFFVVNTDSLSS
# T17: human CD26-derived 13 mer peptide 117 (human)
# T17 peptide: TNATSIQITAPAS
# T18: human CD26-derived 13 mer peptide 62 (human)
# T18 peptide: NDIYVKIEPNLPS
# T19: human CD26-derived 13 mer peptide 116 (human)
# T19 peptide: SVTNATSIQITAP
# T20: human CD26-derived 13 mer peptide 87 (human)
# T20 peptide: GTFLAYAQFNDTE
# T21: human CD26-derived 13 mer peptide 102 (human)
# T21 peptide: KTVRVPYPKAGAV
# T22: human CD26-derived 13 mer peptide 26 (human)
# T22 peptide: FGHSINDYSISPD
# T23: human CD26-derived 13 mer peptide 10 (human)
# T23 peptide: HEYLYKQENNILV
# T24: human CD26-derived 13 mer peptide 18 (human)
# T24 peptide: EYGNSSVFLENST
# T25: human CD26-derived 13 mer peptide 111 (human)
# T25 peptide: FFVVNTDSLSSVT
# T26: human CD26-derived 13 mer peptide 24 (human)
# T26 peptide: TFDEFGHSINDYS
# T27: human CD26-derived 13 mer peptide 90 (human)
# T27 peptide: AQFNDTEVPLIEY
# T28: human CD26-derived 13 mer peptide 67 (human)
# T28 construct: also called LPSYRITWTGKED
# T28 peptide: LPSYRITWTGKED
# T29: human CD26-derived 13 mer peptide 46 (human)
# T29 construct: also called NKRQL1TEERIPN
# T29 peptide: NKRQLITEERIPN
# T30: human CD26-derived 13 mer peptide 61 (human)
# T30 peptide: WNNDIYVKIEPNL
# T31: human CD26-derived 13 mer peptide 9 (human)
# T31 peptide: SDHEYLYKQENNI
# T32: human CD26-derived 13 mer peptide 118 (human)
# T32 peptide: ATSIQITAPASML
# T33: human CD26-derived 13 mer peptide 122 (human)
# T33 peptide: PASMLIGDHYLCD
# T34: human CD26-derived 13 mer peptide 43 (human)
# T34 peptide: YDIYDLNKRQLIT
# T35: human CD26-derived 13 mer peptide 15 (human)
# T35 peptide: ILVFNAEYGNSSV
# T36: human CD26-derived 13 mer peptide 60 (human)
# T36 peptide: YVWNNDIYVKIEP
# T37: human CD26-derived 13 mer peptide 44 (human)
# T37 peptide: IYDLNKRQLITEE
# B1: rhuMAb 412 (antibody, human IgG1, V domains shown)
# VH: EVQLVQSGGGVKQPGETLRLTCTASGFSLTTYGVHWVRQAPGKGLEWVGVIWGDGRTDYDAAFMSRVTISKDTSKSTAYLQMNSLRAEDTAVYYCMRNRHDWFDYWGQGTTVTVSS
# VL: EIEMTQSPSSLSVSAGERATISCSASQDIRNSLNWYQQKPGQAPRLLIYYSSNLHTGVPARFSGSGSGTDFTLTISRLEPEDVAIYYCQQSNKLPLTFGSGTKVEIKR
# notes: X385 VH and X380 VL with human IgG1 and human kappa constant regions; also called X412
# Tests used:
# [1] = biological target: human CD26 on the cell surface (human, UniProt P27487 1-766); assay: cell-based or functional assay
# [2] = biological target: T1, human CD26-derived 13 mer peptide 100; assay: peptide microarray
# Description: (§1) The overnight incubation was followed by three washings with each of PBS buffer pH 7.5 and water. The microarrays were then scanned using ArrayWorx-Microarray Scanner.
# (§2) The SPOT recognition software package ArrayPro was used for data analysis. The mean of signal intensities from 3 identical subarrays on each microarray image was used for data evaluation.
# [3] = biological target: T2, human CD26-derived 13 mer peptide 45; assay: peptide microarray
# Description: as §1, §2
# [4] = biological target: T3, human CD26-derived 13 mer peptide 25; assay: peptide microarray
# Description: as §1, §2
# [5] = biological target: T4, human CD26-derived 13 mer peptide 21; assay: peptide microarray
# Description: as §1, §2
# [6] = biological target: T5, human CD26-derived 13 mer peptide 88; assay: peptide microarray
# Description: as §1, §2
# [7] = biological target: T6, human CD26-derived 13 mer peptide 47; assay: peptide microarray
# Description: as §1, §2
# [8] = biological target: T7, human CD26-derived 13 mer peptide 119; assay: peptide microarray
# Description: as §1, §2
# [9] = biological target: T8, human CD26-derived 13 mer peptide 71; assay: peptide microarray
# Description: as §1, §2
# [10] = biological target: T9, human CD26-derived 13 mer peptide 28; assay: peptide microarray
# Description: as §1, §2
# [11] = biological target: T10, human CD26-derived 13 mer peptide 103; assay: peptide microarray
# Description: as §1, §2
# [12] = biological target: T11, human CD26-derived 13 mer peptide 22; assay: peptide microarray
# Description: as §1, §2
# [13] = biological target: T12, human CD26-derived 13 mer peptide 96; assay: peptide microarray
# Description: as §1, §2
# [14] = biological target: T13, human CD26-derived 13 mer peptide 23; assay: peptide microarray
# Description: as §1, §2
# [15] = biological target: T14, human CD26-derived 13 mer peptide 112; assay: peptide microarray
# Description: as §1, §2
# [16] = biological target: T15, human CD26-derived 13 mer peptide 104; assay: peptide microarray
# Description: as §1, §2
# [17] = biological target: T16, human CD26-derived 13 mer peptide 110; assay: peptide microarray
# Description: as §1, §2
# [18] = biological target: T17, human CD26-derived 13 mer peptide 117; assay: peptide microarray
# Description: as §1, §2
# [19] = biological target: T18, human CD26-derived 13 mer peptide 62; assay: peptide microarray
# Description: as §1, §2
# [20] = biological target: T19, human CD26-derived 13 mer peptide 116; assay: peptide microarray
# Description: as §1, §2
# [21] = biological target: T20, human CD26-derived 13 mer peptide 87; assay: peptide microarray
# Description: as §1, §2
# [22] = biological target: T21, human CD26-derived 13 mer peptide 102; assay: peptide microarray
# Description: as §1, §2
# [23] = biological target: T22, human CD26-derived 13 mer peptide 26; assay: peptide microarray
# Description: as §1, §2
# [24] = biological target: T23, human CD26-derived 13 mer peptide 10; assay: peptide microarray
# Description: as §1, §2
# [25] = biological target: T24, human CD26-derived 13 mer peptide 18; assay: peptide microarray
# Description: as §1, §2
# [26] = biological target: T25, human CD26-derived 13 mer peptide 111; assay: peptide microarray
# Description: as §1, §2
# [27] = biological target: T26, human CD26-derived 13 mer peptide 24; assay: peptide microarray
# Description: as §1, §2
# [28] = biological target: T27, human CD26-derived 13 mer peptide 90; assay: peptide microarray
# Description: as §1, §2
# [29] = biological target: T28, human CD26-derived 13 mer peptide 67; assay: peptide microarray
# Description: as §1, §2
# [30] = biological target: T29, human CD26-derived 13 mer peptide 46; assay: peptide microarray
# Description: as §1, §2
# [31] = biological target: T30, human CD26-derived 13 mer peptide 61; assay: peptide microarray
# Description: as §1, §2
# [32] = biological target: T31, human CD26-derived 13 mer peptide 9; assay: peptide microarray
# Description: as §1, §2
# [33] = biological target: T32, human CD26-derived 13 mer peptide 118; assay: peptide microarray
# Description: as §1, §2
# [34] = biological target: T33, human CD26-derived 13 mer peptide 122; assay: peptide microarray
# Description: as §1, §2
# [35] = biological target: T34, human CD26-derived 13 mer peptide 43; assay: peptide microarray
# Description: as §1, §2
# [36] = biological target: T35, human CD26-derived 13 mer peptide 15; assay: peptide microarray
# Description: as §1, §2
# [37] = biological target: T36, human CD26-derived 13 mer peptide 60; assay: peptide microarray
# Description: as §1, §2
# [38] = biological target: T37, human CD26-derived 13 mer peptide 44; assay: peptide microarray
# Description: as §1, §2
# Chain of human CD26 on the cell surface (P27487 whole entry): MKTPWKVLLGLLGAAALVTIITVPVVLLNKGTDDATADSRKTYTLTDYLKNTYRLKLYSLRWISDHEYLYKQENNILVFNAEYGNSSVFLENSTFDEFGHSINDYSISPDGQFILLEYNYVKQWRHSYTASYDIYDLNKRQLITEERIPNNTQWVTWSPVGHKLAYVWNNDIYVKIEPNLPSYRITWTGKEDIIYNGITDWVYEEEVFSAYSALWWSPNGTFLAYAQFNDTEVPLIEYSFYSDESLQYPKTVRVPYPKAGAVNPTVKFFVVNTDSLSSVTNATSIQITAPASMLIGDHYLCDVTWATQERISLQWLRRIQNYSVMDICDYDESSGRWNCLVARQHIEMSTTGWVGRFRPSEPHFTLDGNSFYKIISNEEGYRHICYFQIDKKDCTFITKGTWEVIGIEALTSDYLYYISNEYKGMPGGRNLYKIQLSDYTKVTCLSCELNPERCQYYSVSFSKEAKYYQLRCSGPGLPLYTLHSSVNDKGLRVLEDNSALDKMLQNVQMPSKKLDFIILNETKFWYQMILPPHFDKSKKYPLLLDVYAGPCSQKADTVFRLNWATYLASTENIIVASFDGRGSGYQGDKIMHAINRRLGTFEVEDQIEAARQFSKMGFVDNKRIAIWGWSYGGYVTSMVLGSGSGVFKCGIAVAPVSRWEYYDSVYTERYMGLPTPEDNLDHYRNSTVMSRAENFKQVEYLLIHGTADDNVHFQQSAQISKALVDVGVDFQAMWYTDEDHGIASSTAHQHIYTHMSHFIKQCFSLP
binder,measurement,setting,value
B1,"percent inhibition, MTT assay, Jurkat CD26+ cells, 0.05 ug/ml",[1],0.3%
same,"percent inhibition, MTT assay, Jurkat CD26+ cells, 0.25 ug/ml",[1],5.4%
same,"percent inhibition, MTT assay, Jurkat CD26+ cells, 5 ug/ml",[1],23.6%
same,Mean Signal Value,[2],0
same,Mean Signal Value,[3],0
same,Mean Signal Value,[4],0
same,Mean Signal Value,[5],0
same,Mean Signal Value,[6],0
same,Mean Signal Value,[7],0
same,Mean Signal Value,[8],0
same,Mean Signal Value,[9],0
same,Mean Signal Value,[10],0
same,Mean Signal Value,[11],0
same,Mean Signal Value,[12],0
same,Mean Signal Value,[13],0
same,Mean Signal Value,[14],0
same,Mean Signal Value,[15],0
same,Mean Signal Value,[16],0
same,Mean Signal Value,[17],0
same,Mean Signal Value,[18],0
same,Mean Signal Value,[19],0
same,Mean Signal Value,[20],0
same,Mean Signal Value,[21],0
same,Mean Signal Value,[22],0
same,Mean Signal Value,[23],0
same,Mean Signal Value,[24],0
same,Mean Signal Value,[25],0
same,Mean Signal Value,[26],0
same,Mean Signal Value,[27],0
same,Mean Signal Value,[28],0
same,Mean Signal Value,[29],0
same,Mean Signal Value,[30],0
same,Mean Signal Value,[31],0
same,Mean Signal Value,[32],0
same,Mean Signal Value,[33],0
same,Mean Signal Value,[34],0
same,Mean Signal Value,[35],0
same,Mean Signal Value,[36],0
same,Mean Signal Value,[37],0
same,Mean Signal Value,[38],0
